In paper PMC3152195:

Biological target: GST-fusion protein containing the UBA domain of Dsk2p (residues 328–373) (UniProt P48510)
Experiment: pull-down

Chain of UniProt P48510 (P48510 328-373): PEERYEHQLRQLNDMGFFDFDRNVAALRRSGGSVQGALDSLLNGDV

## endogenous GLUT4 in 3T3-L1 adipocytes (ubiquitinated) (from UniProt P14142 1-509) (natural protein)
  percent of total cellular GLUT4 pulled down by GST–UBA (taken as ubiquitinated): 0.1%
